Results from IntAct's records for PubMed 20080638.

B1: Chaperonin-containing T-complex member BBS12 (Homo sapiens), Q6ZW61 (parent)
chain: MVMACRVVNKRRHMGLQQLSSFAETGRTFLGPLKSSKFIIDEECHESVLISSTVRLLESLDLTSAVGQLLNEAVQAQNNTYRTGISTLLFLVGAWSSAVEECLHLGVPISIIVSVMSEGLNFCSEEVVSLHVPVHNIFDCMDSTKTFSQLETFSVSLCPFLQVPSDTDLIEELHGLKDVASQTLTISNLSGRPLKSYELFKPQTKVEADNNTSRTLKNSLLADTCCRQSILIHSRHFNRTDNTEGVSKPDGFQEHVTATHKTYRCNDLVELAVGLSHGDHSSMKLVEEAVQLQYQNACVQQGNCTKPFMFDISRIFTCCLPGLPETSSCVCPGYITVVSVSNNPVIKELQNQPVRIVLIEGDLTENYRHLGFNKSANIKTVLDSMRLQEDSSEELWANHVLQVLIQFKVNLVLVQGNVSERLIEKCINSKRLVIGSVNGSVMQAFAEAAGAVQVAYITQVNEDCVGDGVCVTFWRSSPLDVVDRNNRIAILLKTEGINLVTAVLTNPVTAQMQIKEDRFWTCAYRLYYALKEEKVFLGGGAVEFLCLSCLHILAEQSLKKENHACSGWLHNTSSWLASSLAIYRPTVLKFLANGWQKYLSTLLYNTANYSSEFEASTYIQHHLQNATDSGSPSSYILNEYSKLNSRIFNSDISNKLEQIPRVYDVVTPKIEAWRRALDLVLLVLQTDSEIITGHGHTQINSQELTGFLFL
partner: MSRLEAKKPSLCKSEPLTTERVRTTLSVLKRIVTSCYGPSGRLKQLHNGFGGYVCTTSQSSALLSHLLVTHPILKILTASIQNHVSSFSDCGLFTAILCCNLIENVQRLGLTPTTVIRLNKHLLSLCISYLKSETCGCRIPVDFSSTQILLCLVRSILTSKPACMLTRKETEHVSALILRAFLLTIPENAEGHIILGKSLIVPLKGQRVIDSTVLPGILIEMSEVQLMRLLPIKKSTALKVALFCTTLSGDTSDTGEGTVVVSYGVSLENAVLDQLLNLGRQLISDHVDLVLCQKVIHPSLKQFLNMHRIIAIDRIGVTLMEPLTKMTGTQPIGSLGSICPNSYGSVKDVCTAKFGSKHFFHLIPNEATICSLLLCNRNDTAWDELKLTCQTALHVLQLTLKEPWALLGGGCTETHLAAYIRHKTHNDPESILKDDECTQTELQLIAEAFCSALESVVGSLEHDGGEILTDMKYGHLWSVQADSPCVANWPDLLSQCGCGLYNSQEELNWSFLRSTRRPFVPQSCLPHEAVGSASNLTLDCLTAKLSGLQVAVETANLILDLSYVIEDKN
B2: Molecular chaperone MKKS (Homo sapiens), Q9NPJ1 (parent)
chain: B1 partner
partner: B1 chain
B3: BBSome complex assembly protein BBS10 (Homo sapiens), Q8TAM1 (parent)
chain: MLSSMAAAGSVKAALQVAEVLEAIVSCCVGPEGRQVLCTKPTGEVLLSRNGGRLLEALHLEHPIARMIVDCVSSHLKKTGDGAKTFIIFLCHLLRGLHAITDREKDPLMCENIQTHGRHWKNCSRWKFISQALLTFQTQILDGIMDQYLSRHFLSIFSSAKERTLCRSSLELLLEAYFCGRVGRNNHKFISQLMCDYFFKCMTCKSGIGVFELVDDHFVELNVGVTGLPVSDSRIIAGLVLQKDFSVYRPADGDMRMVIVTETIQPLFSTSGSEFILNSEAQFQTSQFWIMEKTKAIMKHLHSQNVKLLISSVKQPDLVSYYAGVNGISVVECLSSEEVSLIRRIIGLSPFVPPQAFSQCEIPNTALVKFCKPLILRSKRYVHLGLISTCAFIPHSIVLCGPVHGLIEQHEDALHGALKMLRQLFKDLDLNYMTQTNDQNGTSSLFIYKNSGESYQAPDPGNGSIQRPYQDTVAENKDALEKTQTYLKVHSNLVIPDVELETYIPYSTPTLTPTDTFQTVETLTCLSLERNRLTDYYEPLLKNNSTAYSTRGNRIEISYENLQVTNITRKGSMLPVSCKLPNMGTSQSYLSSSMPAGCVLPVGGNFEILLHYYLLNYAKKCHQSEETMVSMIIANALLGIPKVLYKSKTGKYSFPHTYIRAVHALQTNQPLVSSQTGLESVMGKYQLLTSVLQCLTKILTIDMVITVKRHPQKVHNQDSEDEL
partner: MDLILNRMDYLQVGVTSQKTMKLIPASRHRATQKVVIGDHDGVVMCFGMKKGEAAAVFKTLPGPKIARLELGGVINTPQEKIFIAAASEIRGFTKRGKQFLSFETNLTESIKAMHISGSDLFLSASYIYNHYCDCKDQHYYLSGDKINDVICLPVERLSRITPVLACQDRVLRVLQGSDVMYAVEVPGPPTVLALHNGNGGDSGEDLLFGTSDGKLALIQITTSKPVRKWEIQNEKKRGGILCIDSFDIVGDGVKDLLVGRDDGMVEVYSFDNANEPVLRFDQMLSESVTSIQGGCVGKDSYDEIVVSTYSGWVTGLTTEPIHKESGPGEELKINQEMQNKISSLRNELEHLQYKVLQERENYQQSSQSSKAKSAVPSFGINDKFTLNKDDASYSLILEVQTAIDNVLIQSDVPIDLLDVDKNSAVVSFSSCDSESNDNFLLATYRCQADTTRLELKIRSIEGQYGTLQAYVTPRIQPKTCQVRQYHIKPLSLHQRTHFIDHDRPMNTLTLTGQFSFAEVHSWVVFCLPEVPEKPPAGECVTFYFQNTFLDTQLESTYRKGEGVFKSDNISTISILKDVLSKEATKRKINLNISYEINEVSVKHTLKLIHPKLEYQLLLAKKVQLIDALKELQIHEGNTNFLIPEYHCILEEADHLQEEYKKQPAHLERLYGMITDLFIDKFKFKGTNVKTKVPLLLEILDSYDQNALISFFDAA
B4: BBSome complex assembly protein BBS10 (Homo sapiens), Q8TAM1 (parent)
chain: B3 chain
partner: B1 chain
B5: BBSome complex assembly protein BBS10 (Homo sapiens), Q8TAM1 (parent)
chain: B3 chain
partner: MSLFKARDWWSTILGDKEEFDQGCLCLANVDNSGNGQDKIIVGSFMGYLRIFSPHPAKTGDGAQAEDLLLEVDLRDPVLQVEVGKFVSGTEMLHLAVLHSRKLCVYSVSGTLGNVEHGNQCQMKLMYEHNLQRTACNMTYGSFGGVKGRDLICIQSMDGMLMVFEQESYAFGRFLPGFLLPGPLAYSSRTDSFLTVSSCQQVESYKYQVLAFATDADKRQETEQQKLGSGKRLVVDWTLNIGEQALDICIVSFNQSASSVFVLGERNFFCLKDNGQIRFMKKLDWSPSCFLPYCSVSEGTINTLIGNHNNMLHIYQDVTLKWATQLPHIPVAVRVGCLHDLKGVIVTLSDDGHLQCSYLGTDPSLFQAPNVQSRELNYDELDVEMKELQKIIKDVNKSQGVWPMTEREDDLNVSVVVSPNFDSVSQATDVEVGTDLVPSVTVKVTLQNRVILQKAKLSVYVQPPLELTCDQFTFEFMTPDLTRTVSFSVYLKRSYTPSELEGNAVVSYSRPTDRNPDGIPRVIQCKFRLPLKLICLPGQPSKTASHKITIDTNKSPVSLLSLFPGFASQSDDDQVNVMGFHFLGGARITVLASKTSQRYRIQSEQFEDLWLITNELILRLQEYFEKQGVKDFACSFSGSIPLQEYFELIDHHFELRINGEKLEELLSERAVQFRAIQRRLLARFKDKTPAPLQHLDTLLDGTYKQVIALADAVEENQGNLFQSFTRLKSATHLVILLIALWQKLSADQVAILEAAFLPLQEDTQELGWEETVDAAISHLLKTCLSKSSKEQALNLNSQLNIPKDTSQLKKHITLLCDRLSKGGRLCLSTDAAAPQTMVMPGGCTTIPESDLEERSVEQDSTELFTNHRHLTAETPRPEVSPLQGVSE

Variants of: B1
Details: with mkks_human MKKS

Variant | effect of a mutation on the interaction
G540V | decreasing interaction
I346T | disrupting interaction
T501M | decreasing interaction

Variants of: B2
Details: with bbs12_human BBS12, Q6ZW61

Variant | effect of a mutation on the interaction
T57A | decreasing interaction

Variants of: B3
Details: with bbs7_human BBS7, Q8IWZ6

Variant | effect of a mutation on the interaction
D81N | decreasing interaction
V240G | decreasing interaction
R34P | decreasing interaction

Variants of: B4
Details: with bbs12_human BBS12, Q6ZW61

Variant | effect of a mutation on the interaction
S311A | decreasing interaction
S329L | decreasing interaction

Continued, values first:

effect of a mutation on the interaction | Variant
decreasing interaction | V240G
decreasing interaction | D81N

Variants of: B5
Details: with pthb1_human BBS9, Q3SYG4

Variant | effect of a mutation on the interaction
R49W | decreasing interaction
D81N | decreasing interaction
